Patent publication US20150203579A1 (Regeneron, published 2015)
Substitutions are numbered along the chain they refer to. Names and notes keep the numbering of the source. Where two headings read alike, the source gives them in different places. One block for each binder: values may come before it.

Experiments:
[1] = biological target: T1, full length human PD-1 on HEK293/hPD-1 cells (human, UniProt Q15116 25-288); assay: FACS dose response, HEK293/hPD-1 cells; EC50 Inconclusive
Protocol: (§1) For the assay, adherent cells were detached using trypsin and blocked with complete medium. Cells were centrifuged and resuspended at a concentration of 6×10̂6 cells/mL in staining buffer (1% FBS in PBS). To determine the EC₅₀ and Eₘₐₓ of the anti-PD1 antibodies, 90 uL of cell suspension was incubated for 30 minutes on ice with a serial dilution of anti-PD-1 antibodies and controls diluted to a final concentration ranging from 5 pM to 100 nM (no mAb sample was included as negative control) in staining buffer. Cells were then centrifuged and pellets were washed once with staining buffer to remove unbound antibodies. […] The following day, cells were centrifuged and pellets were washed once with staining buffer, resuspended and filtered. Fluorescence measurements were acquired on Hypercyt® cytometer and analyzed in ForeCyt™ (IntelliCyt; Albuquerque, N. Mex.) to determine the mean fluorescence intensities (MFI). The EC₅₀ values were calculated from a four-parameter logistic equation over an 11-point response curve using GraphPad Prism. Eₘₐₓ for each antibody was defined as the binding at the highest antibody dose (100 nM) tested.

[2] = biological target: T1, full length human PD-1 on HEK293/hPD-1 …; assay: FACS, 100 nM mAb, HEK293/hPD-1 cells;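 further: antibodies incubated with cells for 15-30 min on ice, bound antibody detected through a secondary F(ab′)2 by flow cytometry, with parental HEK293 cells tested in parallel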
Protocol: (§2) For the assay, adherent cells were detached using trypsin or enzyme-free dissociation buffer and blocked with complete medium. Cells were centrifuged and resuspended at a concentration of 2.5-6×10̂6 cells/mL in cold PBS containing 2% FBS. HEK293 parental and HEK293/hPD-1 cells were then incubated for 15-30min on ice with 100 nM of each anti-PD-1 antibody. […] Cells were washed with D-PBS containing 2% FBS to remove unbound secondary F(ab′)2 and fluorescence measurements were acquired using either a HyperCyte (IntelliCyt, Inc.) flow cytometer or an Accuri flow cytometer (BD Biosciences). Data was analyzed using FlowJo software (Tree Star).

[3] = biological target: T2, recombinant human PD-1 dimer expressed with a C-terminal mouse IgG2a Fc tag (human); assay: BLI Octet: 100 nM hPD-1-mFc + 500 nM mAb to captured hPD-L1-hFc
T2 construct: also called hPD-1-mFc
Target sequence in this assay (chain, as listed by the source limits assumed): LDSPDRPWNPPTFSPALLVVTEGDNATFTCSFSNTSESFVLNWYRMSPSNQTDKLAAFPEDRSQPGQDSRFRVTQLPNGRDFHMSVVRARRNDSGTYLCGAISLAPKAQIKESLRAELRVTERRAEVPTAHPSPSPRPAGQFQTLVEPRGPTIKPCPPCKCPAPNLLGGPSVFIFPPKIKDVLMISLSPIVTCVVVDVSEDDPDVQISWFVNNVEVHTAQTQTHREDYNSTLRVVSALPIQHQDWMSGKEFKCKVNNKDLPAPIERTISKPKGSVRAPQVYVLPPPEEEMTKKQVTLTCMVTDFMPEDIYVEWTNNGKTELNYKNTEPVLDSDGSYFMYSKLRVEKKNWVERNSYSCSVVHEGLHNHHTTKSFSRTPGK
Protocol: Inhibition studies for anti-PD-1 monoclonal antibodies expressed with a mouse Fc were performed on an Octet Red 96 instrument. […] The biosensors were washed in Octet HBST buffer in between each step of the experiment. The real-time binding responses were monitored during the entire course of the experiment and the binding response at the end of every step was recorded.

[4] = biological target: T1, full length human PD-1 on HEK293/hPD-1 …; assay: FACS, 100 nM mAb
Protocol: as §2

[5] = biological target: T3, PD-1 chimera: extracellular domain of human PD-1 with trans-membrane and cytoplasmic domains of human CD300a, … (human, UniProt Q9UGN4 181-299, limits assumed); assay: cell-based or functional assay
T3 sequence (Q9UGN4 other isoform, or with tags, fused parts or gaps mutant limits assumed, form in doubt): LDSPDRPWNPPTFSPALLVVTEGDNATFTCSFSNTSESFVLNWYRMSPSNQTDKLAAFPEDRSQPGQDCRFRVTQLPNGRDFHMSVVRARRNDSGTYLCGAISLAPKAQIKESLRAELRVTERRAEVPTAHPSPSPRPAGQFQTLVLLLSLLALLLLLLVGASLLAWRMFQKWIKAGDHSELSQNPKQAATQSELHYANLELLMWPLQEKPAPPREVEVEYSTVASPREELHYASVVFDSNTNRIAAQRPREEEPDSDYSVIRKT

[6] = biological target: T1, full length human PD-1 on HEK293/hPD-1 …; assay: FACS dose response, HEK293/hPD-1 cells; No EC50 determined
Protocol: as §1

[7] = biological target: T4, recombinant human PD-L1 expressed with a C-terminal mouse IgG2a Fc tag (human); assay: SPR Biacore 3000: 500 nM mAb alone (no hPD-1.hFc) over captured hPD-L1.mFc surface, control
T4 construct: also called hPD-L1-mFc; hPD-L1.mFc

[8] = biological target: T5, monkey PD-1 with mFc (monkey); assay: SPR, captured mAb, 25 C;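 further: purified anti-PD-1 antibodies tested on Biacore 4000 or T200 instruments, rate constants obtained via 1:1 binding model fit, with KD as kd/ka and half-life as ln2/(60·kd)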
T5 construct: also called monkey PD-1-mFc; monkey PD-1 dimer
T5 chain: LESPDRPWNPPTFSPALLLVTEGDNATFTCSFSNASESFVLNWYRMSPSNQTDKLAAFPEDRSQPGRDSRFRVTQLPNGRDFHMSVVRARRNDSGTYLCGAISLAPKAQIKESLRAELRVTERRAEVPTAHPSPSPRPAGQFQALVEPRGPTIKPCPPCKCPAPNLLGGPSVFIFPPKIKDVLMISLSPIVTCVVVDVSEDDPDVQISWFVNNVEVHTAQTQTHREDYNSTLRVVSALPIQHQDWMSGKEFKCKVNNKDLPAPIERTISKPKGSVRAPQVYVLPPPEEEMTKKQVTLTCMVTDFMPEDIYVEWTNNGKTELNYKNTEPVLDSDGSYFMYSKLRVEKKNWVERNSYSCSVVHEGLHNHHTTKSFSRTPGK
Protocol: (§3) Binding association and dissociation rate constants (kₐ and kd, respectively), equilibrium dissociation constants and dissociation half-lives (KD and t_{1/2}, respectively) for antigen binding to purified anti-PD1 antibodies were determined using a real-time surface plasmon resonance biosensor assay on a Biacore 4000 or Biacore T200 instrument. […] Experiments were performed at 25° C. and 37° C. Kinetic association (kₐ) and dissociation (kd) rate constants were determined by processing and fitting the data to a 1:1 binding model using Scrubber 2.0c curve fitting software. Binding dissociation equilibrium constants (KD) and dissociative half-lives (t_{1/2}) were then calculated from the kinetic rate constants as: KD(M)=kd/kₐ and t_{1/2} (min)=[In2/(60*kd)].

[9] = biological target: T5, monkey PD-1 with mFc; assay: SPR, captured mAb, 37 C;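 further: Real-time Biacore surface plasmon resonance biosensor readout of PD-1 reagent binding to purified anti-PD-1 monoclonal antibodies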
Protocol: as §3

[10] = biological target: T6, monkey PD-1 with mFc (monkey (MfPD-1)); assay: SPR (Biacore), monkey PD-1-mFc, 37 C; end of range tied to H4H9068P2 by Table 11
T6 construct: also called monkey PD-1-mFc; monkey PD-1 dimer
T6 chain: T5 chain
Protocol: as §3

[11] = biological target: T6, monkey PD-1 with mFc; assay: SPR (Biacore), monkey PD-1-mFc, 25 C; end of range tied to H4H9068P2 by Table 10
Protocol: as §3

[12] = biological target: T3, PD-1 chimera: extracellular domain of …; assay: cell-based or functional assay; remark: listed apart in the source
[13] = biological target: T7, recombinant human PD-1 expressed with a C-terminal human IgG1 Fc tag (human); assay: SPR Biacore 3000: 100 nM hPD-1.hFc + 500 nM mAb to captured hPD-L1.mFc;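 further: inhibition study with anti-PD-1 mAbs, SPR responses tracked in real time and read at the close of each step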
T7 construct: also called hPD-1-hFc; hPD1-hFc
T7 sequence (chain, as listed by the source limits assumed): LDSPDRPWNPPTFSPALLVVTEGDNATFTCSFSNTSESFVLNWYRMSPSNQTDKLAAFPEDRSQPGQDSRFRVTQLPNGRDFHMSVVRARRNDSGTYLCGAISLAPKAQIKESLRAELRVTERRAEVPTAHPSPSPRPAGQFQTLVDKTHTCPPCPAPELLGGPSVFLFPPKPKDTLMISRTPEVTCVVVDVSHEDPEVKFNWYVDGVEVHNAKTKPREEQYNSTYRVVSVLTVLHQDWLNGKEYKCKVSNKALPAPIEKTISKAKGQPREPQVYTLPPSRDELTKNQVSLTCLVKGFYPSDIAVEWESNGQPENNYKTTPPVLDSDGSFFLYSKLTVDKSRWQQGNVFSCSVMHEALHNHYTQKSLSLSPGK
Protocol: Next, inhibition studies for anti-PD-1 monoclonal antibodies expressed with human Fc were performed on a Biacore 3000 instrument. […] The real-time binding responses were monitored during the entire course of the experiment and the binding response at the end of every step was recorded.

[14] = biological target: T2, recombinant human PD-1 dimer expressed …; assay: competition ELISA: 100 pM hPD-1-mFc to coated hPD-L2-hFc
Protocol: (§4) Data analysis was performed using a sigmoidal dose-response model within Prism™ software (GraphPad). […] Percent maximum blockade was calculated as a measure of the ability of the antibodies to completely block binding of human PD-1 to human PD-L1 or PD-L2 on the plate as determined from the dose curve.

[15] = biological target: T5, monkey PD-1 with mFc; assay: SPR, captured mAb, 37 C; no dissociation observed, kd fixed at 1.00E-05;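 on 100 nM Monkey PD-1-mFc Bound (RU): Real-time Biacore surface plasmon resonance biosensor readout of PD-1 reagent binding to purified anti-PD-1 monoclonal antibodies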;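 on koff: Real-time Biacore surface plasmon resonance biosensor readout of PD-1 reagent binding to purified anti-PD-1 monoclonal antibodies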;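 on kon: Real-time Biacore surface plasmon resonance biosensor readout of PD-1 reagent binding to purified anti-PD-1 monoclonal antibodies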
Protocol: as §3

[16] = biological target: T2, recombinant human PD-1 dimer expressed …; assay: competition ELISA: 1.5 nM hPD-1-mFc to coated hPD-L1-hFc
Protocol: as §4

[17] = biological target: T8, recombinant human PD-1 expressed with a C-terminal myc-myc-hexahistidine tag (human); assay: SPR (Biacore), mAb captured, hPD-1-MMH injected, 25 C;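 further: rate constants obtained by fitting sensorgrams to a 1:1 binding model, KD derived as kd/ka and half-life as ln2/(60·kd) in minutes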
T8 construct: also called hPD-1-MMH; human PD-1-MMH
Protocol: as §3

[18] = biological target: T6, monkey PD-1 with mFc; assay: SPR (Biacore), monkey PD-1-mFc, 37 C; end of range tied to H4xH9008P by Table 11 (kd fixed at 1.00E-05)
Protocol: as §3

[19] = biological target: T9, recombinant cynomolgus monkey PD-1 expressed with a C-terminal myc-myc-hexahistidine tag (cynomolgus monkey (Macaca fascicularis)); assay: SPR (Biacore), MfPD-1-MMH, 37 C; end of range tied to H4xH9045P by Table 9
T9 construct: Monomeric reagent; also called MfPD-1-MMH
T9 chain: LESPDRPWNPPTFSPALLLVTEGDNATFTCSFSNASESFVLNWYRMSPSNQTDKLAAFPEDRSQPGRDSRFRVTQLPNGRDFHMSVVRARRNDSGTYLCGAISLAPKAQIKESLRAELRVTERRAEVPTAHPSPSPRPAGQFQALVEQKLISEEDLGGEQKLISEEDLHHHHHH
Protocol: as §3

[20] = biological target: T9, recombinant cynomolgus monkey PD-1 …; assay: SPR (Biacore), MfPD-1-MMH, 25 C; end of range tied to H4xH8999P by Table 8
Protocol: as §3

T1 sequence (Q15116 25-288 limits assumed): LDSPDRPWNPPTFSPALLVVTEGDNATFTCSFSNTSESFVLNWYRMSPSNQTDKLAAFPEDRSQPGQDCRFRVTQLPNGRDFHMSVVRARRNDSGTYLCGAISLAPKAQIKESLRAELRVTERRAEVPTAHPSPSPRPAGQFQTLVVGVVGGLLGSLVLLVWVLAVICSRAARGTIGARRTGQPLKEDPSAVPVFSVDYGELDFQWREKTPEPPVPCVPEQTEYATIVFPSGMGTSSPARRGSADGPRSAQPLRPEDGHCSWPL

% blocking at 100 nM antibody [14]: 94%
MFI [2]: 26200 MFI
Kd [15]: ≤ 0.049 nM
t1/2 [15]: ≥ 1160 min
500 nM of anti-PD-1 monoclonal antibody (RU) [7]: 0 RU
Kd [8]: 0.48 nM
t1/2 [8]: 200 min
100 nM Monkey PD-1-mFc Bound (RU) [9]: 98 RU
% blocking at 200 nM antibody [16]: 88%
IC50 [16]: 2.4 nM
binding of the mixture (RU) [13]: 1 RU
B6: H4xH9008P (antibody, V domains shown)
VH: EVQLVESGGGLVRPGGSLRLSCAASGFTFSTYAMAWVRQTPGKGLEGVSAIGGSGDSTYYVDSVKGRFTISRDNSKSTLFLQMNSLRAEDTAVYYCVKVRNYDGSFDIWGQGTMVTVSS
VL: not shown
notes: human IgG4 Fc with 2 or more amino acid changes (US20100331527)

Kd [17]: 31 nM
t½ [17]: 8.7 min
Kd [18]: < 0.049 nM
B7: H4xH9008P (antibody, human IgG4, V domains shown)
VH: B6 VH
VL: not shown
notes: H4xH: modified human IgG4 Fc

Kd [17]: 74.6 nM
koff [17]: 0.00403 s⁻¹
kon [17]: 54000 M⁻¹ s⁻¹
t½ [17]: 2.9 min
Kd [19]: 7540 nM
B8: H4xH9045P (antibody, human IgG4, V domains shown)
VH: EVQLVESGGGLVQPGRSLRLSCAASGFTFDDYDMHWVRQAPGKGLEWVSGSGWNRGSLGYADSVKGRFTISRDNAKKSLYLQMNSVRVEDTALYYCAKGFVVVSAAYFDYWGQGTLVTVSS
VL: not shown
notes: H4xH: modified human IgG4 Fc; also called H4xH9045P2

Kd [17]: 4.33 nM
t½ [17]: 9.4 min
Kd [20]: 3.09 nM
B9: H4xH8999P (antibody, human IgG4, V domains shown)
VH: QLQLQESGPGLVQPSETLSLTCTVSGDSISSTAYHWDWIRQPPGKGLEWIGTITYNGNTYFNPSLKSRVTISVDTSKNQFSLKLLSMTAAETAVFYCARHLGYNSDFFPFDFWGQGTLVTVSS
VL: not shown
notes: H4xH: modified human IgG4 Fc

The remaining lines, values behind:

B1: H1M7789N (antibody, V domains shown)
VH: EVQLLESGGGLVQPGGSLRLSCSASGFTFSSYTMNWVRQAPGKGLEWVSGISDTGGNTYYTDSVKGRFTVSRDNSKNTLSLQMNSLRAEDTAVYYCAKDQGGSYPYYFHYWGQGSLVTVSS
VL: DIQMTQSPSSLSASVGDRVTITCRASQSISSYLIWYQQKPGTAPKFLIYAASSLQSGVPSRFSGCGSGTDFTLTISSLQPEDFATYYCQQSYSTPPITFGQGTRLEIK
notes: human variable regions, mouse IgG1 Fc
Max Geom. Mean MFI @ 100 nM [1]: 35600 MFI
MFI [2]: 24200 MFI
% Blocking [3]: 29%
binding of the mixture (nm) [3]: 0.05 nm
ratio of MFI HEK293/hPD-1 to HEK293 parental cells [4]: 92.3
Emax mean [%] @ 100 nM [5]: 135%

B2: H4H9068P2 (antibody, V domains shown)
VH: EVQLVESGGGLVQRGGSLRLSCAASGFSFSSYAMNWVRQAPGKGLEWVSTISDSGGSTYYADSVKGRFTISRDNSKNTLSLQMNSLRAEDTAVYYCAKDQGGSYPYYFHYWGQGTLVTVSS
VL: not shown
notes: fully human; H4H prefix (human IgG4 Fc)
MFI [2]: 1940 MFI
Max Geom. Mean MFI @ 100 nM [6]: 639 MFI
500 nM of anti-PD-1 monoclonal antibody (RU) [7]: -2 RU
100 nM Monkey PD-1-mFc Bound (RU) [8]: 17 RU
Kd [8]: 54.2 nM
koff [8]: 0.00309 s⁻¹
kon [8]: 57000 M⁻¹ s⁻¹
t1/2 [8]: 4 min
100 nM Monkey PD-1-mFc Bound (RU) [9]: 6 RU
Kd [9]: 86.3 nM
koff [9]: 0.0105 s⁻¹
kon [9]: 121000 M⁻¹ s⁻¹
t1/2 [9]: 1.1 min
ratio of MFI HEK293/hPD-1 to HEK293 parental cells [4]: 6.8
Emax mean [%] @ 100 nM [5]: 102%

B3: H4H9068P2 (antibody, human IgG4, V domains shown)
VH: B2 VH
VL: not shown
notes: Human IgG4 Fc (H4H prefix)
Kd [10]: 86.3 nM
Kd [11]: 54.2 nM

B4: H2aM7791N (antibody, V domains shown)
VH: QMQLQQWGAGLLKPSETLSLTCVVYGGSLNGYYWSWIRQSPGKGLEWIGEIDHSGSTNYNPSLKNRVTMSVDTSKIQFSLKLTSVTVADTAVYYCAREGLLPFDYWGQGTLVTVSS
VL: EIVLTQSPGTLSLSPGERVTLSCRASQSVYSNYLAWYQQNPGQAPRLLIYAASNRATGIPDRFSGSGSGTDFTLTISRLEPEDFAVYYCHQYATSPWTFGQGTKVEIK
notes: human variable regions, mouse IgG2a Fc; also called H2M7791N
MFI [2]: 4950 MFI
Max Geom. Mean MFI @ 100 nM [6]: 1400 MFI
% Blocking [3]: -229%
binding of the mixture (nm) [3]: 0.23 nm
ratio of MFI HEK293/hPD-1 to HEK293 parental cells [4]: 18
Emax mean [%] @ 100 nM [5]: 103%

B5: H4H9008P (antibody, human IgG4 S228P, kappa, V domains shown)
VH: B6 VH
VL: not shown
notes: human IgG4 Fc
Max Geom. Mean MFI @ 100 nM [1]: 32200 MFI
Emax mean [%] @ 100 nM [12]: 150%
500 nM of anti-PD-1 monoclonal antibody (RU) [7]: -7 RU
% Blocking [13]: 107%
binding of the mixture (RU) [13]: -7 RU

B10: H2aM7795N (antibody, V domains shown)
VH: EVQVVESGGGLVEPGRSLRLSCKASGFTFDDYAMHWVRQTPGKALEWVSGINWSGNNIGYADSVKGRFTISKDDAKNSLYLQMNSLRPEDTALYYCTKDISITGTLDAFDVWGQGTMVTVSS
VL: DIQMTQSPISVSASVGDRVTITCRASQGISNWLAWYQQKPGIAPKLLIYSASSLQSGVPSRFRGSGSGTDFTLTIGSLQPEDFATYYCQQAHSFPLTFGGGTKVEIK
notes: human variable regions, mouse IgG2a Fc; also called H2M7795N
MFI [2]: 817 MFI
Max Geom. Mean MFI @ 100 nM [6]: 624 MFI
% Blocking [3]: 114%
binding of the mixture (nm) [3]: -0.01 nm
ratio of MFI HEK293/hPD-1 to HEK293 parental cells [4]: 2.8
Emax mean [%] @ 100 nM [5]: 109%

B11: H4H7795N2 (antibody, human IgG4 S228P, kappa, V domains shown)
VH: B10 VH with N52S
VL: DIQMTQSPISVSASVGDRVTITCRASQGISNWLAWYQQKPGIAPKLLIYSASSLQSGVPSRFRGSGSGTDFTLTIGSLQPEDFATYYCQQAHSFPLTFGGGTKVEIKR
notes: human IgG4 Fc
Max Geom. Mean MFI @ 100 nM [1]: 15200 MFI
Emax mean [%] @ 100 nM [12]: 110%
500 nM of anti-PD-1 monoclonal antibody (RU) [7]: -5 RU
100 nM Monkey PD-1-mFc Bound (RU) [8]: 60 RU
Kd [8]: 0.621 nM
koff [8]: 9.92e-05 s⁻¹
kon [8]: 160000 M⁻¹ s⁻¹
t1/2 [8]: 116 min
100 nM Monkey PD-1-mFc Bound (RU) [9]: 47 RU
Kd [9]: 1.71 nM
koff [9]: 0.00029 s⁻¹
kon [9]: 170000 M⁻¹ s⁻¹
t1/2 [9]: 40 min
% Blocking [13]: 106%
binding of the mixture (RU) [13]: -6 RU
